Source: patent US20230416366A1 (Hoffmann-La Roche, published 2023)

B1: CD28(SA)_variant_25 (antibody, human IgG1, kappa, L234A L235A)
heavy: not shown
light: not shown
chain: DKTHTCPPCPAPEAAGGPSVFLFPPKPKDTLMISRTPEVTCVVVDVSHEDPEVKFNWYVDGVEVHNAKTKPREEQYNSTYRVVSVLTVLHQDWLNGKEYKCKVSNKALGAPIEKTISKAKGQPREPQVCTLPPSRDELTKNQVSLSCAVKGFYPSDIAVEWESNGQPENNYKTTPPVLDSDGSFFLVSKLTVDKSRWQQGNVFSCSVMHEALHNRFTQKSLSLSP
notes: monovalent one-armed IgG-like construct (hu IgG1 PGLALA), tested from HEK supernatant without purification; also called P1AE3081
B2: CD28(SA)_variant_26 (antibody, human IgG1, kappa, L234A L235A)
heavy: not shown
light: not shown
chain: B1 chain
notes: monovalent one-armed IgG-like construct (hu IgG1 PGLALA), tested from HEK supernatant without purification; also called P1AE3082
B3: CD28(SA)_variant_31 (antibody, human IgG1, kappa, L234A L235A)
heavy: not shown
light: not shown
chain: B1 chain
notes: monovalent one-armed IgG-like construct (hu IgG1 PGLALA), tested from HEK supernatant without purification; also called P1AE3087
B4: CD28(SA)_variant_29 (antibody, human IgG1, kappa, L234A L235A)
heavy: not shown
light: not shown
chain: B1 chain
notes: monovalent one-armed IgG-like construct (hu IgG1 PGLALA), tested from HEK supernatant without purification; also called P1AE3085
B5: CD28(SA)_variant_30 (antibody, human IgG1, kappa, L234A L235A)
heavy: not shown
light: DIQMTQSPSSLSASVGDRVTITCRASQNIYVWLNWYQQKPGKAPKLLIYKASNLYSGVPSRFSGSRSGTDFTLTISSLQPEDFATYYCQQGQTYPYTFGQGTKLEIKRTVAAPSVFIFPPSDRKLKSGTASVVCLLNNFYPREAKVQWKVDNALQSGNSQESVTEQDSKDSTYSLSSTLTLSKADYEKHKVYACEVTHQGLSSPVTKSFNRGEC
chain: B1 chain
notes: monovalent one-armed IgG-like construct (hu IgG1 PGLALA), tested from HEK supernatant without purification; also called P1AE3086
B6: CD28(SA)_variant_27 (antibody, human IgG1, kappa, L234A L235A)
heavy: not shown
light: not shown
chain: B1 chain
notes: monovalent one-armed IgG-like construct (hu IgG1 PGLALA), tested from HEK supernatant without purification; also called P1AE3083

Biological target: T1, human CD28 on Jurkat reporter cells (human, UniProt P10747 19-220)
T1 construct: Endogenous CD28 of Jurkat NFAT / Jurkat IL2 reporter cells; also called hu CD28
Test: flow cytometry, MFI (PE) of PE-conjugated anti-human secondary, CHO cells stably overexpressing human CD28; monovalent one-armed IgG from supernatant
Experimental: Binding was assessed by flow cytometry with a FACS Fortessa (BD, Software FACS Diva). Binding curves were obtained using GraphPadPrism6.

Binding result, binds:
B1
B2
B3
B4
B5
B6
